Results from patent EP4722249A1 (AIMED BIO INC., dated 2026).
One block for each molecule: values may come before it.

Experiments:
[1] = target: T1, human CD200R1 on cells (HH, Jurkat-CD200R1, U937-CD200R1) (human) (UniProt Q8TD46); assay: cell-based or functional assay
T1 sequence (looked up): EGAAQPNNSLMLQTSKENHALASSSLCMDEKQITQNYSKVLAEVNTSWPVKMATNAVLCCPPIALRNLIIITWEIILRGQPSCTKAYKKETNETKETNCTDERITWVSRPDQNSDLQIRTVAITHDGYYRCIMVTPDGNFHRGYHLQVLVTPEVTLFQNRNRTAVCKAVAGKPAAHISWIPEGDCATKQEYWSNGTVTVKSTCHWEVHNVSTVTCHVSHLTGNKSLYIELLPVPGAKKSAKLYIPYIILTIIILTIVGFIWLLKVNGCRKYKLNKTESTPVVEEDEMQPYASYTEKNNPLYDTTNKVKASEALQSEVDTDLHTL

[2] = target: T1, human CD200R1 on cells (HH, Jurkat-CD200R1, U937-CD200R1) (human); assay: flow cytometry, Jurkat-CD200R cells
[3] = target: T1, human CD200R1 on cells (HH, Jurkat-CD200R1, U937-CD200R1) (human); assay: flow cytometry, U937-CD200R cells
[4] = target: T1, human CD200R1 on cells (HH, Jurkat-CD200R1, U937-CD200R1) (human); assay: flow cytometry, HH cells
[5] = target: T2, mouse CD200R1 protein (R&D systems, 2554-CD) (mouse, UniProt Q9ES57 26-238); assay: ELISA on coated mouse CD200R1 protein
T2 construct: the same entry is used
T2 sequence (looked up): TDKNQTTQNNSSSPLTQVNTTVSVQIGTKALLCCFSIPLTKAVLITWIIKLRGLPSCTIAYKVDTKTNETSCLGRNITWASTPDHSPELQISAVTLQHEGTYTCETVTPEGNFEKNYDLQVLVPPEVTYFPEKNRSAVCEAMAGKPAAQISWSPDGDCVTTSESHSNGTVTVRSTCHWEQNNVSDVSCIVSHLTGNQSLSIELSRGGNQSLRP

[6] = target: T3, human CD200R1 recombinant protein (human) (UniProt Q8TD46); assay: ELISA of hybridoma clones on human CD200R1
T3 sequence (looked up): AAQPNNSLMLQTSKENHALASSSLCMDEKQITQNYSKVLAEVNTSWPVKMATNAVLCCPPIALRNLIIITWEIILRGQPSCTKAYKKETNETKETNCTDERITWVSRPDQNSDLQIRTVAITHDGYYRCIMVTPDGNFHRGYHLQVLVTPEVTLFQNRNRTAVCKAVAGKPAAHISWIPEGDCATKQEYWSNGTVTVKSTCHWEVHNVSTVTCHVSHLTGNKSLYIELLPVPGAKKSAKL

Molecule: LY3454738 (US 2020/0087395, I-4P, Eli Lilly) (antibody)
EC50 (nM), degree of signal transduction by the Dok2 protein, Jurkat-CD200R1 reporter cells [1]: > 10000 nM
IC50 (nM) of IL-6 suppression, LPS-treated U937-CD200R1 cells [1]: 1.72 nM
IC50 (nM) of TNF-α suppression, LPS-treated U937-CD200R1 cells [1]: 6.03 nM
IL-6 (pg/ml), LPS-treated U937-CD200R1 cells, log [Ab] (M) -7 [1]: 523 pg/ml
IL-6 (pg/ml), LPS-treated U937-CD200R1 cells, log [Ab] (M) -8 [1]: 1330 pg/ml
IL-6 (pg/ml), LPS-treated U937-CD200R1 cells, log [Ab] (M) -9 [1]: 2670 pg/ml
IL-6 (pg/ml), LPS-treated U937-CD200R1 cells, log [Ab] (M) -10 [1]: 3380 pg/ml
IL-6 (pg/ml), LPS-treated U937-CD200R1 cells, log [Ab] (M) -11 [1]: 3550 pg/ml
IL-6 (pg/ml), LPS-treated U937-CD200R1 cells, log [Ab] (M) -12 [1]: 4530 pg/ml
RLU (a.u.), phospho-Dok2 luminescence, Jurkat-CD200R1 reporter cells, antibody dose 0.05 nM [1]: 9260 a.u.
RLU (a.u.), phospho-Dok2 luminescence, Jurkat-CD200R1 reporter cells, antibody dose 0.10 nM [1]: 8400 a.u.
RLU (a.u.), phospho-Dok2 luminescence, Jurkat-CD200R1 reporter cells, antibody dose 0.20 nM [1]: 8000 a.u.
RLU (a.u.), phospho-Dok2 luminescence, Jurkat-CD200R1 reporter cells, antibody dose 0.39 nM [1]: 8960 a.u.
RLU (a.u.), phospho-Dok2 luminescence, Jurkat-CD200R1 reporter cells, antibody dose 0.78 nM [1]: 8900 a.u.
RLU (a.u.), phospho-Dok2 luminescence, Jurkat-CD200R1 reporter cells, antibody dose 1.56 nM [1]: 9100 a.u.
RLU (a.u.), phospho-Dok2 luminescence, Jurkat-CD200R1 reporter cells, antibody dose 3.13 nM [1]: 9470 a.u.
RLU (a.u.), phospho-Dok2 luminescence, Jurkat-CD200R1 reporter cells, antibody dose 6.25 nM [1]: 8930 a.u.
RLU (a.u.), phospho-Dok2 luminescence, Jurkat-CD200R1 reporter cells, antibody dose 12.5 nM [1]: 13000 a.u.
RLU (a.u.), phospho-Dok2 luminescence, Jurkat-CD200R1 reporter cells, antibody dose 25 nM [1]: 22700 a.u.
RLU (a.u.), phospho-Dok2 luminescence, Jurkat-CD200R1 reporter cells, antibody dose 50 nM [1]: 25600 a.u.
TNF-α (pg/ml), LPS-treated U937-CD200R1 cells, log [Ab] (M) -7 [1]: 472 pg/ml
TNF-α (pg/ml), LPS-treated U937-CD200R1 cells, log [Ab] (M) -8 [1]: 1040 pg/ml
TNF-α (pg/ml), LPS-treated U937-CD200R1 cells, log [Ab] (M) -9 [1]: 1480 pg/ml
TNF-α (pg/ml), LPS-treated U937-CD200R1 cells, log [Ab] (M) -10 [1]: 3760 pg/ml
TNF-α (pg/ml), LPS-treated U937-CD200R1 cells, log [Ab] (M) -11 [1]: 4950 pg/ml
TNF-α (pg/ml), LPS-treated U937-CD200R1 cells, log [Ab] (M) -12 [1]: 5490 pg/ml
EC50 [2]: 43.5 nM
EC50 [3]: 152 nM
EC50 [4]: 82.7 nM

binding result [5]: no binding (tested: up to 300 nM)
B1: P001015 (antibody, V domains shown)
VH: EVQLLESGGGLVQPGGSLRLSCAASGFTFSSYDMSWVRQVPGKGLEWVSWISHGGGSIYYADSVKGRFTISRDNSKNTLYLQMNSLRAEDTAVYYCARDAPAYSAPLFDYWGQGTLVTVSS
VL: QSVLTQPPSASGTPGQRVTISCSGSSSNIGNNAVNWYQQLPGTAPKLLIYYDSNRPSGVPDRFSGSKSGTSASLAISGLRSEDEADYYCAAWDDSLSGYVFGGGTKLTVL

B2: 5E9 (antibody, V domains shown)
VH: QVQLQQSGAELARPGASVKLSCKASGYTFTSYWMQWVKQRPGQGLEWIGAIYPGDGDTRYTQKFKGKATLTADKSSSTAYMQLRSLASEDSAVFYCARGGVTTLVPYFFDYWGQGATLTVSS
VL: DVLMTQTPLSLPVSLGDQASISCRSSQSIVHSNGNTYLEWYLQKPGQSPKLLIYKVSNRFSGVPDRFSGSGSGTDFTLKISRVEAEDLGVYYCFQGSHVPPTFGGGTKLEIK
ELISA O.D. [6]: > 1.5 O.D.

B3: 6C3 (antibody, V domains shown)
VH: QVQLQQPGAELVRPGASVKLSCKASAYTFTSYWMNWVKQRPEQGLEWIGRIDPYDSETHYNQKFKDKAILTVDKSSSTAYMQLSSLTSEDSAVYYCARVDGNHLFDYWGQGTTLTVSS
VL: DIKMTQSPSSMYASLGERVTITCKASQDINSYLSWFQQKPGKSPKTLIYRANRLVDGVPSRFSGSGSGQDYSLTISSLEYEDMGIYYCLQYDEFPYTFGGGTKLEIK
ELISA O.D. [6]: > 1.5 O.D.

B4: 6A10 (antibody, V domains shown)
VH: QLQQSGAELVRSGASVKLSCTASGFNIKDYYLHWIKQRPEQGLEWIGWIDPENGDTEYAPKFQGKATMTADTSSNTAYLQLISLTSEDAAVYYCFAGGSYWGQGTSVTVSS
VL: DIVMTQSPSSLSVSAGEKVTMSCKSSQSLLNSGNQKNYLAWYQQKPGQPPKLLIYGASTRESGVPDRFTGSGSGTDFTLTISSVQAEDLAVYYCQNDHSYPYTFGGGTKLEIK
ELISA O.D. [6]: > 1.5 O.D.

B5: 1F1 (antibody, V domains shown)
VH: QVQLQQPGAEFVKPGAPVKLSCKASGYTFTSYWMNWVKQRPGRGLEWIGRIDPADSEIHYNQKFKDKATLTVDKSSSTAYIQFSSLTSEDSAVYYCARSGGWLPGFAYWGQGTLVTVSA
VL: ENVLTQSPAIMSASPGEKVTMTCSASSSLIYMHWYQQKSSTSPKLWIYDTSKLASGVPGRFSGSGSGNSYSLTINSMEAEDVATYYCFQGSGYPLMYTFGGGTKLEIK
ELISA O.D. [6]: > 1.5 O.D.

B6: 6A8 (antibody, V domains shown)
VH: QVQLQQPGAELVKPGAPVKLSCKASGYTFTSYWMNWVKQRPGRGLEWIGRIDPSDSETHYNQKFKDKATLTVDKSSSTAYIQLSSLTSEDSAVYYCARSGGWLPGFAYWGQGTLVTVSA
VL: ENVLTQSPAIMSASPGEKVTMTCSASSSLSYMLWYQQKSSTSPKLWIYDTSKLASGVPGRFSGSGSGNSYSLTISSMEAEDVGTYYCFQGSGNPLMYTFGGGTKLEIK
ELISA O.D. [6]: > 1.5 O.D.

B7: 3G4 (antibody, V domains shown)
VH: QVQLQQPGAELVKPGAPVKLSCKASGFTLTSYWMNWVKQRPGRGLEWIGRIDPSDSETHYNQKFKDKATLTVDKSSSTAYIQLTSLTSEDSAVYYCARSGGWLPGFAYWGQGTLVTVSA
VL: ENVLTQSPAIMSASPGEKVTMTCSARSSVSYMHWYQQKSRTSPKLWIYDTSKLASGVPGRFSGSGSGNSYSLTISSMEAEDVATYYCFQGSGDPLMYTFGGGTKLEIK
ELISA O.D. [6]: > 1.5 O.D.

B8: 1H10 (antibody, V domains shown)
VH: QVQLQQPGAELVKPGTSVKLSCKASGYNFTSYWINWVKLRPGQGLEWIGDINPGSGSTNYNEKFRSKATLTVGTSSSTAYMQLSSLASEDSALYYCAREDYYGSRFFYWGQGTLVTVSA
VL: DVVMTQTPLSLPVSLGDQASISCRSSQSLVHSNGNTYLHWYLQKPGQSPKLLIYKVSNRFSGVPDRFSGSGSGTDFTLKISRVEAEDLGVYFCSQSTHVTFGAGTKLELK
ELISA O.D. [6]: > 1.5 O.D.
